Reference: US20210139964, “RNA TAGGING SYSTEM FOR VISUALIZATION OF SINGLE MRNA MOLECULES” (ALBERT EINSTEIN COLLEGE OF MEDICINE, published 2021)
Where two headings read alike, the source gives them in different places.

Tests used:
[1] = target: MS2 coat protein (literature) (Enterobacteria phage MS2) (UniProt P03612); settings: CITED Lowary and Uhlenbeck 1987, cited from earlier work
MS2 coat protein (MCP) = MS2 coat protein (MCP) (Enterobacteria phage MS2, UniProt P03612 P03612:2-130); assay: EMSA; sub-nanomolar; exact value only in figure; about 10-fold tighter than wt (p109); 10 mM Tris, 100 mM NaCl, 0.1 mM EDTA, tRNA, heparin, room temperature, 3 h; settings: tags: MBP-TEV N-terminal, C-terminal 6xHis (plasmid pET336, E. coli Rosetta2); chain copies: 2 (inferred); label: 5' fluorescein; hairpin
Method: Design of a new MBS-MCP system faithfully recapitulating mRNA kinetics —We considered four variables that could influence the ability of the MS2 array to block degradation by […] when MCP is bound. First, the loop sequence can affect the affinity of MCP for the stem. […] The current MBSV5 and MBSORF versions have a U to C change in position −5 of all loops (FIG. 2A-C). We compared the high affinity C-variant loops to the wt-loops (FIG. 2D). The affinities of the MBS-MCP binding were analyzed by electrophoretic mobility shift assay (EMSA). As a control, we used the original loop sequence from the bacteriophage with a U or a C at position −5. In addition, C or U variants were generated for two MS2 loops (Loop1 and Loop2), each of them with a different stem sequence (FIG. 2D). Apparent equilibrium dissociation constants (Kd) were extracted from plots of MCP bound versus free (FIG. 2E-G).
Complexes were monitored and quantified by EMSA as previously described (Chao et al., 2008). In brief, 100 pM RNAs were incubated at room temperature for three hours with 2 fold dilutions of MCP in 10 mM Tris, 100 mM NaCl, 0.1 mM EDTA, 0.01 mg/mL tRNA, […] heparin and 0.01% IGEPAL CA630. Complexes were then run using 5% native PAGE in 0.5×TBE and visualized using the Typhoon 9400 variable mode laser scanner (GE Healthcare).

Sequence of MS2 coat protein (literature) (Enterobacteria phage MS2) (P03612 2-130): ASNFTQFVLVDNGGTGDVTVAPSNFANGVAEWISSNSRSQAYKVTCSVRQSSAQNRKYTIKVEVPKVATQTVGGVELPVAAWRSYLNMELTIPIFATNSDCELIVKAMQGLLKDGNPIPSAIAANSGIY
Sequence of MS2 coat protein (MCP) (P03612 2-130, one chain of several): as the sequence (P03612 2-130) above

Molecule: MS2 C-variant operator loop (literature)
- Kd ([1]; dissociation about 90 times slower than wt): 1 nM

Molecule: MS2 wt operator loop (literature)
- Kd ([1]; Valegard et al.): 10 nM

Molecule: ACAUGAGGAUCACCCAUGU (ssRNA) [MS2 C-variant stem loop]
- Kd (MS2 coat protein (MCP)): < 1 nM
